Source: the supplement of paper PMC9170038

System: MS2 coat protein
Test: apparent KD of MS2 coat protein; higher = weaker reporter binding
Details: Eterna round: R107
In short: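 Values are apparent KD, taken as the median for each design of fits to normalised binding curves from individual clusters. The designed RNA switches were transcribed on-chip from Illumina sequencing clusters and exposed to SNAP-549-labelled MS2 coat protein at twofold increasing amounts from 0.7 or 1.5 nM to 3 µM. Titration used 100 mM Tris-HCl pH 7.5, 80 mM KCl and 4 mM MgCl2, without or with constant ligand.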

[1] = input ligand: theophylline 20 uM
[2] = input ligand: theophylline 2 mM
[3] = input ligand: tryptophan 2.4 mM

Row | Sequence | apparent KD of MS2 coat protein (input ligand: arginine 13.2 mM) | apparent KD of MS2 coat protein [1] | apparent KD of MS2 coat protein [2] | apparent KD of MS2 coat protein [3] | apparent KD of MS2 coat protein (input ligand: none)
1 | AGAAUAUAGUCGGCCGCCACUCUUCAUACAUGAGGAUCACCCAUGUUUAAUUCUUGGAUAUUCUUGAGGACCGGGACAUAGGCAU [JR_SSTryptoB_Sub019] | 18 nM | 23.1 nM | 21.6 nM | – | –
2 | AGACAUGAGGAUCACCCAUGUAGCAUGGAUACCAGAUGUAGAUUAGUCCCUUGGCAGCUGUGGUAAAGUGAUGCAUUGCUCCUAG [Exclusion - Theophylline A (Freestyle 3)] | 35.2 nM | 55.3 nM | – | 38.8 nM | –
3 | AGACAUGUAAGAUAAAUGACUUAUACAGAUACCAGACUGUCUAAUGUCCCUUGGCAGCUGCAUAACAUGAGGAUCACCCAUGUAA [JR_ExcTheophyA_Sub010] | 22.3 nM | 24.2 nM | – | 26.9 nM | –
4 | AGACCCUUCACGGCCGCCACUCAUUUUAAGUAGAGAGAGUACAUGAGGAUCACCCAUGUGAGAGAGAGGACCGGGUGAGAUAUUA [ss-trypB-0] | 13.9 nM | 21.4 nM | 21.3 nM | – | –
5 | AGACUGUCUUCGGACAGUCCGGACAGCCCGCGAGGACCGGUACGGCCGCCACUCGCACGAGGAUCACCCGUGUGAGGCUGUCCGA [Omei Tryp A Exc A v2] | 9.87 nM | 17.2 nM | 16.4 nM | 14.5 nM | 13.4 nM
6 | AGCAACAAGUCGGCCGCCACUCAUUUAACAUGAGGAUCACCCAUGUGAAUAACAUGGUUGUAAUAGAGGACCGGGACAGUUGCAU [JR_SSTryptoB_Sub016] | 205 nM | 283 nM | 401 nM | – | –
7 | AGCACUGUGACGGCCGCCACUAUAUAUAGGGUGGUCAGGUUCAUAAUACAUGAGGAUCACCCAUGUAGGACCGGGUCUCAGUGCA [Omei Trp Exc B A v4] | 14.5 nM | 14.9 nM | 10.9 nM | 14 nM | 12 nM
8 | AGCACUGUGGCGGCCGCCACUACAUAUAGGGUGGUCAGGCCCAUAAUACAUGAGGAUCACCCAUGUAGGACCGGGCCUCAGUGCA [Omei Trp Exc B A v13] | 12.7 nM | 20 nM | 16.5 nM | – | –
9 | AGCCACUCGAACAUGGGUGACGAGUGGCAACGAGGACCGGUACGGCCGCCACUCGAAUAAACAUGAGGAUCACCCAUGUACAAAU [T''-M'-T'-T-MS2 - Design 9] | 33.1 nM | 146 nM | 355 nM | – | –
10 | AGCGACAUGCAUGAUACCAGCUACAUGAGGAUCACCCAUGUACGUCAGUAAUGACUGUGUAGCCCUUGGCAGCAUAGAGCAUGUU [Exclusion - Theophylline B (Freestyle 15)] | 15.7 nM | 29.3 nM | – | 16.5 nM | –
11 | AGCGACAUGCGUGAUACCAGCUACAUGAGGAUCACCCAUGUACGUCAGAAAUGACUGUGUAGCCCUUGGCAGCAUAGUGCAUGUC [Exclusion - Theophylline B (Freestyle 20)] | 34.6 nM | 54.2 nM | – | 34.8 nM | –
12 | AGCUCGCAUCCUCUAGCGUCAAAGACGCGUCGAGGACCGGUACGGCCGCCACUCGACUUGAGGAACACCCAAGUCCUAGCGAGCA [TrypAX 12 #SwitchBubble #AlternativeMS2 #MS2Late #CuTurnoff] | 62.2 nM | 217 nM | 306 nM | 290 nM | 188 nM
13 | AGCUCGCGUCCUCAAGCGUCAAAGACGCGUCGAGGACCGGUACGGCCGCCACUCGACCUGAGGAUCACCCAGGUUUAAGCGAGCA [TrypAX 6 #SwitchBubble #AlternativeMS2 #MS2Late #CuTurnoff] | 12.7 nM | 20 nM | 18.1 nM | 115 nM | 17.8 nM
14 | AGGAAACAACAUGAGGAUCACCCAUGUGAUACCAGUAUCAAAAGAUACCCUUGGCAGCACACAUGACAUGAGGAUCACCCAUGUA [AstrosSSTheA#2] | 33.2 nM | 52.4 nM | – | 74.4 nM | –
15 | AGGACAUCGAGAAGGAGCGCAUCCAAACCACACAUGAGGAUCACCCAUGUAUAAAUAUGCAUGCAGGUAGGUCGCUCGGCGUCUU [Leanerin] | 57.5 nM | 121 nM | 85.7 nM | 87.4 nM | 99 nM
16 | AGGUGGCGCGGAAGGAGCGAGUUUGCCUAUUACAUGAGGAUCACCCAUGUGGGUAAUGGGACUCAGGUAGGUCGCCGUUGUCGCU [Same State Arginine B GF 27] | 35.6 nM | 91.5 nM | 68.8 nM | 61.5 nM | 47.9 nM
17 | AGGUGGGUCUGAAGGAGCGCGAUAACAUGAGGAUCACCCAUGUUAAAUGGUACAUGAUACUCGCAGGUAGGUCGCAGUAAAACCA [Same State Arginine B GF 12] | 25 nM | 73.1 nM | 93.8 nM | 53.1 nM | 84.4 nM
18 | AGUAAUCUAUCAGAUACCAGACCCUCUUUAACAUGAGGAUCACCCAUGUCUAUGUUCUACGUCCCUUGGCAGCUGUAAAUGAUAA [JR_SSTheophyB_Sub002] | 34.9 nM | 80 nM | – | 57.7 nM | –
19 | AGUCUUAAUGGAAGGAGCGCAGUCAUAACAUGAGGAUCACCCAUGUCGAGGUGAGGGUCAUUGCAGGUAGGUCGCCAUACUAAGA [Same State - Arginine B (Freestyle 3)] | 125 nM | 220 nM | 265 nM | 245 nM | 199 nM

Row | Sequence | apparent KD of MS2 coat protein (input ligand: arginine 13.2 mM) | apparent KD of MS2 coat protein [1] | apparent KD of MS2 coat protein [2] | apparent KD of MS2 coat protein [3] | apparent KD of MS2 coat protein (input ligand: none)
20 | AGUGACUACAUCUGGAAUUAAGGUAGGGAAGGAGCGCGGUAAGACGCAGGUAGGUCGCCCUACAUGAGGAUCACCCAUGUGAUGU [XARG-A 28] | 75.5 nM | 264 nM | 331 nM | 232 nM | 354 nM
21 | AGUGGGUGUUAUGAUACCAGCGUAAUACACAACAUGAGGAUCACCCAUGUGGAGCCUCGCCGCCCUUGGCAGCAUUGGGCCCGCA [theeternabot_sameState_MS2_Theo_B_4] | 115 nM | 237 nM | – | 223 nM | –
22 | AUAAAUAAUAAAUAUAAUAAAGUGGGUGAACGAGGACCGGUACGGCCGCCACUCGGACAUGAGGAUCACCCAUGUCCAUGUGAAA [AstrosExtTry#3] | 9.94 nM | 19.1 nM | 19.3 nM | 40.1 nM | 17.3 nM
23 | AUAACAGUGUCGGCCGCCACUAGAACACAUGAGGAUCACCCAUGUGGUGGUACCUCCUAAGACGAUAGGACCGGGACCCAUCUAC [theeternabot_exclusion_MS2_Trp_B_12] | 50.4 nM | 108 nM | 143 nM | – | –
24 | AUACAUGAGGAUCACCCAUGUCAUUCAGAAGGAGCGUCAUUUUAGACAGGUAGGUCGCUGAUAGUAUUUUUAUACUUUAUGUUUA [JR_SSArginiA_Sub015] | 19.5 nM | 29.3 nM | 23.3 nM | 21.6 nM | 20.3 nM
25 | AUAUAUACAUGAGGAUCACCCAUGUUAUUUCGAGGACCGGUACGGCCGCCACUCGAUAGAGUAGAAGUAAAUUUUAAUUCAUGUA [JR_SSTryptoA_Sub008] | 13.9 nM | 18.7 nM | 16.8 nM | – | –
26 | AUAUAUAUAUAGAAAUAUAUAUAUAUGUAACGAGGACCGGUACGGCCGCCACUCGUGCCGGUGAUAACAUGAGGAUCACCCAUGU [Ex_TrypA - Every engine approves!] | 19.8 nM | 20.9 nM | 20.3 nM | 20 nM | 16 nM
27 | AUAUCUUCCACGGCCGCCACUGAAUGGUGCCCAAGGUCGAUCGCAGACAUGAGGAUCACCCAUGUCAGGACCGGGUGGUACUACG [theeternabot_exclusion_MS2_Trp_B_23] | 16.1 nM | 16.5 nM | 15.7 nM | – | –
28 | AUAUGAUCAUACGAUACCAGAAAUGGUAUUCCUUUAUUUCUUACAUGAGGAUCACCCAUGUUCCCUUGGCAGCGUAUGAUCAUAU [ETHB #3] | 125 nM | 327 nM | – | 303 nM | –
29 | AUAUUAGACCUGGAUACCAGCGACAUGAGGAUCACCCAUGUAUGUGCAUCUGCCAUGAUAUGCCCUUGGCAGCCACCGAGGUCGU [CZZMULLIN] | 12.4 nM | 16 nM | – | 10.8 nM | –
30 | AUCCACAGCCGAAGGAGCGCAGUAGGAUGACAUGAGGAUCACCCAUGUGUGUGAUGUGGAUUGCAGGUAGGUCGCGGAGUGGAUU [Exclusion - Arginine B (Freestyle 9)] | 165 nM | 82 nM | 60.1 nM | 46.4 nM | 54.5 nM
31 | AUGACUUACGGGCGCCAUUUGUAAUAGGAAGGAGCGGCGAGAUAGCCAGGUAGGUCGCCUAUACAUGAGGAUCACCCAUGUCACC [Vegeorbe] | 66.8 nM | 103 nM | 81.8 nM | 112 nM | 120 nM
32 | AUGCACCUCGUCCAGGCAAUCUUUAGUGAUACCAGCUAACUCCUUGGCCCUUGGCAGCACAUGAGGAUCACCCAUGUGCGACAUC [Tidile] | 11.1 nM | 14.9 nM | – | 13.9 nM | –
33 | AUGCAUAGCACGGCCGCCACUCCAUGUAAACAUGAGGAUCACCCAUGUAAUUUGGAUGUUUUAUAGAGGACCGGGUGAAAUGCAA [JR_ExcTryptoB_Sub004] | 8.42 nM | 10.1 nM | 10.3 nM | – | –
34 | AUGCAUAGCGGAAGGAGCGCAAUAGAAUGACAUGAGGAUCACCCAUGUGUGUGAUGUGGGUUGCAGGUAGGUCGCCGAGUGGCAU [#11 Exclusion - Arginine B] | 77.6 nM | 95.9 nM | 127 nM | 59.1 nM | 80.9 nM
35 | AUGCCUAGUGGAAGGAGCGAGGGUCUUCUCAACAUGAGGAUCACCCAUGUUCUUUUAUACCCUCAGGUAGGUCGCCAUUGGGACA [Anenre] | 27.7 nM | 33.6 nM | 25.7 nM | 34.8 nM | 28.8 nM
36 | AUGGAGACCUCGGCCGCCACUCUCCAUGAGGAUCUCCCAUGUAACAUGAGGAUCACCCAUGUGCUGAGGACCGGGAGGUCCUGAA [Same State Tryptophan B GF 18] | 9.2 nM | 15.8 nM | 12.5 nM | – | –
37 | AUUAAUUUAUUUCUCAAUUUAAUUUCAGAAGGAGCGUGAUGUUUCACAGGUAGGUCGCUGUUUACAUGAGGAUCACCCAUGUUUU [JR_SSArginiA_Sub004] | 32 nM | 44.4 nM | 40.4 nM | 31.8 nM | 40.2 nM
